# Molecular target: the molecule itself
# Test: SEC-MALS; 14-3-3ζ variants alone, injected at 50 μM initial concentration; Superdex 200 10/300 GL; 50 mM Tris pH 7.4, 150 mM NaCl, 0.5 mM TCEP; room temperature; dimer to monomers
protein,measurement,value
"14-3-3ζ S58E (natural protein, human, 14-3-3 protein zeta with Glu at position 58 (ζ-isoform numbering); also called S58E variant; phosphomimetic S58E; source: E. coli, purified) MDKNELVQKAKLAEQAERYDDMAACMKSVTEQGAELSNEERNLLSVAYKNVVGARRSEWRVVSSIEQKTEGAEKKQQMAREYREKIETELRDICNDVLSLLEKFLIPNASQAESKVFYLKMKGDYYRYLAEVAAGDDKKGIVDQSQQAYQEAFEISKKEMQPTHPIRLGLALNFSVFYYEILNSPEKACSLAKTAFDEAIAELDTLSEESYKDSTLIMQLLRDNLTLWTS",stoichiometry N,2

# — publication PMC10141581, “Autonomous Synthesis of Functional, Permanently Phosphorylated Proteins for Defining the Interactome of Monomeric 14-3-3ζ” (ACS Central Science, 2023)
